In patent publication US20030177513A1 one finds ATIII activity by thrombin inhibition (two-stage colorimetric endpoint assay), milk data, which are given here for 1 substance.

For this assay, the target named is thrombin. The assay is described as follows: cell-based or functional assay.

As to “recombinant human Antithrombin III (ATIII) in the milk of the cloned transgenic goat CFF6-1 (from UniProt P01008 33-464)”, the ATIII activity by thrombin inhibition (two-stage colorimetric endpoint assay), milk at day 5 came to 20.5 U/ml and the ATIII activity by thrombin inhibition (two-stage colorimetric endpoint assay), milk at day 9 was determined as 14.6 U/ml.
